Our source for the Kd values is PMC10701690, “Structural characterization of human de novo protein NCYM and its complex with a newly identified DNA aptamer using atomic force microscopy and small-angle X-ray scattering”.

Series [1] deals with T1, NCYM (Homo sapiens, UniProt P40205 1-109).
T1 sequence: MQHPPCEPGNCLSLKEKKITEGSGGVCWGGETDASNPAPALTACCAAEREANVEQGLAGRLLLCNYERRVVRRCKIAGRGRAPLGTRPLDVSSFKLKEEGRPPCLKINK
Description: BLI; BLI: 25 C, NCYM 25-400 nM, buffer not stated (selection buffer: 40 mM HEPES pH 7.5, 125 mM NaCl, 5 mM KCl, 1 mM MgCl2, 0.01% Tween 20); AFM: 20 mM Tris-HCl pH 7.4, 10 mM MgCl2, 1 mM EDTA, 25 C, 2 h, NCYM 100 nM, aptamer frame 10 nM; SAXS: 293 K. The following applies: protein: recombinant, tags: N-terminal GST tag cleaved, 8 vector residues left (117 aa; stated for SAXS), label: 5'-biotin (BLI). Background: Biolayer interferometry detects binding as a change in optical thickness at a sensor tip.

Series [2] concerns the target T1, NCYM. The experiment in a line: BLI; text gives 299 nM as top of range; BLI: 25 C, NCYM 25-400 nM, buffer not stated (selection buffer: 40 mM HEPES pH 7.5, 125 mM NaCl, 5 mM KCl, 1 mM MgCl2, 0.01% Tween 20); AFM: 20 mM Tris-HCl pH 7.4, 10 mM MgCl2, 1 mM EDTA, 25 C, 2 h, NCYM 100 nM, aptamer frame 10 nM; SAXS: 293 K. Conditions: protein: recombinant; tags: N-terminal GST tag cleaved, 8 vector residues left (117 aa; stated for SAXS); label: 5'-biotin (BLI).

B1: aptamer No. 3 (ssDNA)
DNA: GGAATGTGGTCCCTCGCAATAAATCGGGCGTTGTGGAGGGGGCGGTGGGTGGGGGGAAATGAGCCCTTTGACCCTGTAC
Usually Kd stands for the constant that tells how readily two partners part at equilibrium. As to B1, the Kd with NCYM [1] was determined as 53.9 ± 1.06 nM.

B2: aptamer No. 2 (ssDNA)
DNA: GGAATGTGGTCCCTCGCAATAAATCGGGGAGGGAGGGTGGGGGCGGTGGGAGGTGGAAATGAGCCCTTTGACCCTGTAC
Consider B2, for which the dissociation constant Kd with NCYM [2] was 298 ± 88.7 nM.

B3: aptamer No. 1 (ssDNA)
DNA: GGAATGTGGTCCCTCGCAATAAATCTATGTACGTTATTCCCCTTTGACCAATGCTGAAATGAGCCCTTTGACCCTGTAC
With B3, the Kd with NCYM [1] (stem-loops predicted by RNAfold, dimer in solution (SAXS)) was 176 ± 29.1 nM.
